“And” between values parts separate entries of the source, which are not always exact repeats. Equal values may be shown once.
How the values were obtained:
[1] = molecular target: the molecule itself; test: spatial intensity distribution analysis (SpIDA) of confocal images; basolateral membrane of intact cells induced with varying doxycycline, not treated with ligand (also vehicle, and after washout of antagonists with 60 min recovery); one-population model; QB against monomeric P-M-A206K eGFP
[2] = molecular target: the molecule itself; test: spatial intensity distribution analysis (SpIDA) of confocal images; basolateral membrane of intact cells treated with antagonist for 90 min at 37 °C (SB242084 50 nM, SB243213 50 nM or RS102221 100 nM); one-population model; QB against monomeric P-M-A206K eGFP

B1: human 5-HT2C receptor fused at its carboxyl terminus to A206K eGFP (5-HT2C-A206K eGFP) (receptor, UniProt P28335 33-458, looked up)
chain: IVTDIFNTSDGGRFKFPDGVQNWPALSIVIIIIMTIGGNILVIMAVSMEKKLHNATNYFLMSLAIADMLVGLLVMPLSLLAILYDYVWPLPRYLCPVWISLDVLFSTASIMHLCAISLDRYVAIRNPIEHSRFNSRTKAIMKIAIVWAISIGVSVPIPVIGLRDEEKVFVNNTTCVLNDPNFVLIGSFVAFFIPLTIMVITYCLTIYVLRRQALMLLHGHTEEPPGLSLDFLKCCKRNTAEEENSANPNQDQNARRRKKKERRPRGTMQAINNERKASKVLGIVFFVFLIMWCPFFITNILSVLCEKSCNQKLMEKLLNVFVWIGYVCSGINPLVYTLFNKIYRRAFSNYLRCNYKVEKKPPVRQIPRVAATALSGRELNVNIYRHTNEPVIEKASDNEPGIEMQVENLELPVNPSSVVSERISSV
notes: serotonin 5-hydroxytryptamine 2C (5-HT2C) receptor, human; construct in pEGFPN1, a gift of Dr. K. Herrick-Davis, subcloned into pcDNA5/FRT/TO; also called 5-HT2C-eGFP; serotonin 5-hydroxytryptamine 2C receptor; not shown: A206K eGFP, C-terminal, kept
- average quantal brightness relative to monomeric P-M-A206K eGFP [1]: 1.85 times
- stoichiometry N [1]: 2 and 4
- average quantal brightness relative to monomeric P-M-A206K eGFP, after SB242084 (50 nM, 90 min) [2]: 1.46 fold
